First the molecules themselves.
B1: Lysozyme C, P61626 (parent)
chain: MKALIVLGLVLLSVTVQGKVFERCELARTLKRLGMDGYRGISLANWMCLAKWESGYNTRATNYNAGDRSTDYGIFQINSRYWCNDGKTPGAVNACHLSCSALLQDNIADAVACAKRVVRDPQGIRAWVAWRNRCQNRDVRQYVQGCGV

The variants in this series derive from B1. Particulars: Homo sapiens, Thermal, DSC, glycine 0.05 M, reversible: yes, structure 1LZ1, whole UniProt chain shown.

By Tm is commonly meant the temperature at the midpoint of the melting transition.

Values joined by “and” are separate entries in the source; they are usually repeats but may differ in a detail not shown here. Equal entries are not always repeated.

As for MKALIVLGLVLLSVTVQGMVFERCELARTLKRLGMDGYRGISLANWMCLAKWESGYNTRATNYNAGDRSTDYGIFQINSRYWCNDGKTPGAVNACHLSCSALLQDNIADAVACAKRVVRDPQGIRAWVAWRNRCQNRDVRQYVQGCGV, for the setting “pH 2.5”, the Tm was found to be 61.7 °C, the “unfolding enthalpy (calorimetric)” value is 370 kJ/mol and the “unfolding enthalpy (van 't Hoff)” value stood at 377 kJ/mol. Moreover, the “ddG of mutation (higher = less stable)” value (pH 2.7, 64.9 °C) came out at 0.502 kJ/mol. Moreover, under “pH 2.7”, the Tm was 64.4 °C and 64.9 °C; the “change of melting temperature, mutant - wild type (higher = more stable)” value was -0.5 °C; the “heat capacity change of unfolding” value was 1.03 kcal/mol/K; the “unfolding enthalpy (calorimetric)” value was 384 kJ/mol. Under “pH 2.95”, the Tm worked out at 69.1 °C, the “unfolding enthalpy (calorimetric)” value is 399 kJ/mol and the “unfolding enthalpy (van 't Hoff)” value was 408 kJ/mol. Where the note is “pH 3.22”, the Tm is 70.1 °C, the “unfolding enthalpy (calorimetric)” value came to 412 kJ/mol and the “unfolding enthalpy (van 't Hoff)” value came out at 444 kJ/mol.
Take MKALIVLGLVLLSVTVQGAVFERCELARTLKRLGMDGYRGISLANWMCLAKWESGYNTRATNYNAGDRSTDYGIFQINSRYWCNDGKTPGAVNACHLSCSALLQDNIADAVACAKRVVRDPQGIRAWVAWRNRCQNRDVRQYVQGCGV: for the setting “pH 2.58”, the Tm was 60.9 °C, the “unfolding enthalpy (calorimetric)” value was found to be 379 kJ/mol and the “unfolding enthalpy (van 't Hoff)” value was 413 kJ/mol. Where the note is “pH 2.7”, the Tm stood at 62.7 °C; the “change of melting temperature, mutant - wild type (higher = more stable)” value is -2.2 °C; the “heat capacity change of unfolding” value was 1.6 kcal/mol/K; the “unfolding enthalpy (calorimetric)” value was found to be 405 kJ/mol. Further, where the note is “pH 2.77”, the Tm turned out to be 63.7 °C, the “unfolding enthalpy (calorimetric)” value was determined as 398 kJ/mol and the “unfolding enthalpy (van 't Hoff)” value came to 416 kJ/mol.

The values above are taken from FireProtDB (doi:10.1046/j.1432-1327.1999.00918.x).
